For experiment [1], the target named is T1, human FcRH5 (full-length, on cells) (human, UniProt Q96RD9 16-977).
T1 construct: Transfected SVT2/293 cells or endogenous expression (MOLP-2, primary cells); also called SVT2-FcRH5; SVT2-huFcRH5
T1 sequence: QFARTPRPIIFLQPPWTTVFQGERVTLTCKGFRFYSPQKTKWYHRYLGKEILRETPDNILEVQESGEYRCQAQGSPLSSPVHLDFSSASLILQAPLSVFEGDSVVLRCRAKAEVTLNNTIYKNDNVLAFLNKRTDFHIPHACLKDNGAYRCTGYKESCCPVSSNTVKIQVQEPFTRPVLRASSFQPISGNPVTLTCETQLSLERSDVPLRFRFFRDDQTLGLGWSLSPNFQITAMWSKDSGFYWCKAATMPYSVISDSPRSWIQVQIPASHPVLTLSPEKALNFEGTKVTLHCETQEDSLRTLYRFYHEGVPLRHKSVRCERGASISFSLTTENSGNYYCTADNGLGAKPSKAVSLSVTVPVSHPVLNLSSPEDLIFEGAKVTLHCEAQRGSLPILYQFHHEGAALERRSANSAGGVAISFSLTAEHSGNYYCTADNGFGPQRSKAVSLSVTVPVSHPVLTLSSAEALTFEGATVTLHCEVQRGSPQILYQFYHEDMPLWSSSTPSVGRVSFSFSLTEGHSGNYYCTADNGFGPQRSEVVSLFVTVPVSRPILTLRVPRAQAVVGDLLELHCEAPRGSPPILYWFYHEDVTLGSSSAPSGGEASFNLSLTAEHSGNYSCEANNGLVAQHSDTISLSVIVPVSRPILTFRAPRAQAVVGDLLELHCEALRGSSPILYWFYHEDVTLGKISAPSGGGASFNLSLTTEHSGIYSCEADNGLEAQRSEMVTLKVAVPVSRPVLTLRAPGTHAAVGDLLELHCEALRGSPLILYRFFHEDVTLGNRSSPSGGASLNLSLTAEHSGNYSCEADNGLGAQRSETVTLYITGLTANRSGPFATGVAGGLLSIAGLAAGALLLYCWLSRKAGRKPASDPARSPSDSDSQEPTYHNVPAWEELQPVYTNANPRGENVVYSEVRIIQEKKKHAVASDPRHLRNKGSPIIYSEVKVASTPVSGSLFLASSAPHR
The experiment is described as follows: flow cytometry, SVT2 cells. How it is done:
(§1) Human FcRH5, cyno FcRH5, human FcRH1, FcRH2, FcRH3, and FcRH4 transfected mouse SVT2 cells were used to test binding and cross-reactivity of FcRH5 TDBs. The method was carried out as follows. Cultured SVT2 cells were lifted using non-enzyme cell dissociation buffer (Sigma, #C5914). 1×10⁵ cells were suspended in 100 μL and incubated with FcRH5 TDBs at 3 μg/ml. […] Cells were washed twice with FACS buffer before flow cytometry analysis was carried out on a FACSCalibur.
For orientation: In flow cytometry, cells or beads pass a laser one at a time.

Experiment [2] deals with T2, human FcRH3 (full-length, on SVT2 cells) (human, UniProt Q96P31 18-734).
T2 construct: whole, on cells; also called SVT2-FcRH3
T2 sequence (looked up): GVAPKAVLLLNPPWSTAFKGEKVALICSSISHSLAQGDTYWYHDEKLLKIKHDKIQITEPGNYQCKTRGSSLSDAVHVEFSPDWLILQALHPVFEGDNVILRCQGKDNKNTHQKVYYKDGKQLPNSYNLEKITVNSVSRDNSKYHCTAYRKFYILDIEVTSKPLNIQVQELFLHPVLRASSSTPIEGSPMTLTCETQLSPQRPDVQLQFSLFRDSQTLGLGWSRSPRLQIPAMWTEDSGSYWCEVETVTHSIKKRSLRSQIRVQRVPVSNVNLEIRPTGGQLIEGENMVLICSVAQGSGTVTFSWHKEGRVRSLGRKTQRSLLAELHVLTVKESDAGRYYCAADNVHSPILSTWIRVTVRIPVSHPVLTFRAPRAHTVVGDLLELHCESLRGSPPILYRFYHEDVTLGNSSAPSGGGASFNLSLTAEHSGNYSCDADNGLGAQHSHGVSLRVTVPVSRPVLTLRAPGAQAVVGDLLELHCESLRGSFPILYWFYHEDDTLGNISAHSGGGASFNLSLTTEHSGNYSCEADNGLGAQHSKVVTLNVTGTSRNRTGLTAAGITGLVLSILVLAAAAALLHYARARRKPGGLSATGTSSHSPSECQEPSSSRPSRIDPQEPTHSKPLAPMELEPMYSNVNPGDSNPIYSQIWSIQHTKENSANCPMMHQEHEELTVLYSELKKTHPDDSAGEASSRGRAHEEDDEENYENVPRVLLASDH
The experiment is described as follows: flow cytometry, SVT2 cells. The procedure: as §1

B1: hu1G7.v87/38E4.v1 TDB (bispecific antibody, V domains shown)
VH 1: EVQLVESGPGLVKPSETLSLTCTVSGFSLTRFGVHWVRQPPGKGLEWLGVIWRGGSTDYNAAFVSRLTISKDNSKNQVSLKLSSVTAADTAVYYCSNHYYGSSDYALDNWGQGTLVTVSS
VL 1: DIQMTQSPSSLSASVGDRVTITCKASQDVSNIVVWFQQKPGKSPKLLIYSASYRYTGVPSRFSGSGSGTDFTLTISSLQPEDFATYYCQQHYSSPYTFGQGTKVEIK
VH 2: EVQLVQSGAEVKKPGASVKVSCKASGFTFTSYYIHWVRQAPGQGLEWIGWIYPENDNTKYNEKFKDRVTITADTSTSTAYLELSSLRSEDTAVYYCARDGYSRYYFDYWGQGTLVTVSS
VL 2: DIVMTQSPDSLAVSLGERATINCKSSQSLLNSRTRKNYLAWYQQKPGQSPKLLIYWTSTRKSGVPDRFSGSGSGTDFTLTISSLQAEDVAVYYCKQSFILRTFGQGTKVEIK
notes: knob-into-hole TDB; also called 1G7.v87 TDB
As to B1, the results for the binding result in experiment [1] and in experiment [2] were “binds” and “no binding”, respectively.

(Values after patent publication US20240383984A1 (Genentech, published 2024).)
